Target: the molecule itself
Assay: crystal structure

B1: Nmar_1354, multicopper oxidase (MCO4 lineage) from Nitrosopumilus maritimus (enzyme)
chain: DSSDTFPKFKNPNPQTLSYTLIAQDAEIEVSPGVRAKVWTYNGTVPAPTLRFSEGDDVTVKFVNDTPYAHTIHFHGTHDSANDGVFPMIMPGEEYTYHFVAEEAGLFMYHCHAFPTSEHVRMGMFGTMIIDPAIRPMDPAREYFFTLSEFDPNNALEHFTEFYPINGYAGQYMDNPIRVVSGELTRFYVVGIGGVLQSPFHVHSTIMKVYPSGILWNEPYYAQTHLIGNGDTAIIEATWTQPGMYLFHVHGIQEERGSMAMIEVLEDASSLSDVQRPSNNKGSYSMVEWQEDLIRTLEQPQLISYENLGESAAISSEKVSADKVSIVKDSWNPEITESYDPIAIQVDSGTTVTWTNDDSVVHTVTDNENSFDSGFIQAGNTWSYSFDNPGEFDYICTLHPWMKGTISVN
- stoichiometry N: 3

— article PMC11761707 (Proceedings of the National Academy of Sciences of the …, 2025)
